Source: doi:10.1101/2024.11.04.618112

Biological target: His10-pA-Tn5 (recombinant protein A-Tn5 transposase with an N-terminal His10-tag) (Escherichia coli) (UniProt Q46731)
Test: SEC

His10-pA-Tn5 (recombinant protein A-Tn5 transposase with an N-terminal His10-tag) (from UniProt Q46731 1-476) (enzyme)
stoichiometry N: 2
